Sequences and labels used below:
B1: purified αB-crystallin wild type (from E. coli) (natural protein, human, UniProt P02511 1-175, looked up)
chain: MDIAIHHPWIRRPFFPFHSPSRLFDQFFGEHLLESDLFPTSTSLSPFYLRPPSFLRAPSWFDTGLSEMRLEKDRFSVNLDVKHFSPEELKVKVLGDVIEVHGKHEERQDEHGFISREFHRKYRIPADVDPLTITSSLSSDGVLTVNGPRKQVSGPERTIPITREEKPAVTAAPKK
notes: αB-crystallin, human, wild type; probably made as a GST fusion from pGEX-6P-1 with the GST removed (it is pulled down by GST-BAG3 on GSH beads); also called WT; source: E. coli, purified

Common to all, as to conditions: both partners purified
Assay [1] has as its target T1, GST-BAG3 (human, UniProt O95817 1-575).
T1 construct: BAG3, human, cDNA subcloned into pGEX-6P-1; also called GST-fused BAG3; GST protein fused to BAG3; source: E. coli BL21, purified (glutathione-Sepharose beads)
Kind of assay: pull-down; competition: purified GST-BAG3 incubated with purified αB-crystallin in the presence or absence of peptides aa 87–101 or 200–213 of BAG3; precipitated with GSH beads; immunoblot with anti-αB-crystallin antibody. In general terms: A western blot detects proteins with antibodies after separation by electrophoresis.

The target of assay [2] is T2, purified BAG3 (from E. coli) (human, UniProt O95817 1-575).
T2 construct: BAG3, human; probably made as GST-BAG3 from pGEX-6P-1 with the GST removed (it is pulled down by GST-αB-crystallin on glutathione beads); source: E. coli BL21, purified
The experiment in a line: pull-down; purified GST-fused αB-crystallin (WT or R120G) mixed with purified BAG3, pulled down with glutathione sepharose beads; immunoblot with anti-BAG3 antibody.

In assay [3] the target is T1, GST-BAG3. Kind of assay: pull-down; purified GST-BAG3 incubated with purified αB-crystallin in immunoprecipitation buffer, precipitated with glutathione-Sepharose beads; immunoblot with anti-αB-crystallin antibody.
Assay [4] deals with B1. The experiment in a line: pull-down; competition: purified GST-BAG3 incubated with purified αB-crystallin in the presence or absence of peptides aa 87–101 or 200–213 of BAG3; precipitated with GSH beads; immunoblot with anti-αB-crystallin antibody.

6 molecules from PMC3057972, “BAG3 Directly Interacts with Mutated alphaB-Crystallin to Suppress Its Aggregation and Toxicity” (PLoS ONE, 2011) can be followed below.

T1 sequence (O95817 whole entry, the tested form may be a part): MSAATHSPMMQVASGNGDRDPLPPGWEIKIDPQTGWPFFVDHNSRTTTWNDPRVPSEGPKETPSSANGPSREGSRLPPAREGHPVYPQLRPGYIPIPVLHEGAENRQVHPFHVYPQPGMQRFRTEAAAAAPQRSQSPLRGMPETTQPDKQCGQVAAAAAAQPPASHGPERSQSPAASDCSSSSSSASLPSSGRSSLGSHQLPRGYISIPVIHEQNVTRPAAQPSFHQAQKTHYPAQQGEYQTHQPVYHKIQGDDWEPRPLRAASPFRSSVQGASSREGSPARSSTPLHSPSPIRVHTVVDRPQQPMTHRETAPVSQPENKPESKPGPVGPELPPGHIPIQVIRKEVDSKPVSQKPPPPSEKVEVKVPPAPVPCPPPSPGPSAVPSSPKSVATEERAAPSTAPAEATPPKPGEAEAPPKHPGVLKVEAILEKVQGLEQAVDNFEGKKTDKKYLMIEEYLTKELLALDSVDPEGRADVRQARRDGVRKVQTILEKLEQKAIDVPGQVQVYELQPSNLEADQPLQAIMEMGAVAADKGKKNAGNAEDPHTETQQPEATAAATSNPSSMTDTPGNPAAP
T2 sequence (O95817 whole entry): as the sequence (O95817 whole entry, the tested form may be a part) above

As to B1, the binding result in the assay with GST-BAG3 [1] was “binds”.

B2: GST-αB-crystallin wild type (natural protein, human, UniProt P02511 1-175, looked up)
chain: MDIAIHHPWIRRPFFPFHSPSRLFDQFFGEHLLESDLFPTSTSLSPFYLRPPSFLRAPSWFDTGLSEMRLEKDRFSVNLDVKHFSPEELKVKVLGDVIEVHGKHEERQDEHGFISREFHRKYRIPADVDPLTITSSLSSDGVLTVNGPRKQVSGPERTIPITREEKPAVTAAPKK
notes: αB-crystallin, human, wild type, cDNA subcloned into pGEX-6P-1; also called GST-fused αB-crystallin wild type (WT); GST fusion αB-crystallin; source: E. coli BL21, purified (glutathione-Sepharose beads)
Take B2: in assay [2], the binding result was “binds”.

B3: GST-αB-crystallin R120G (natural protein, human, UniProt P02511 1-175, looked up)
chain: MDIAIHHPWIRRPFFPFHSPSRLFDQFFGEHLLESDLFPTSTSLSPFYLRPPSFLRAPSWFDTGLSEMRLEKDRFSVNLDVKHFSPEELKVKVLGDVIEVHGKHEERQDEHGFISREFHGKYRIPADVDPLTITSSLSSDGVLTVNGPRKQVSGPERTIPITREEKPAVTAAPKK
notes: αB-crystallin, human, mutant R120G found in myofibrillar myopathy patients, cDNA subcloned into pGEX-6P-1; also called GST R120GαB-crystallin; GST-fused αB-crystallin mutant (R120G); source: E. coli BL21, purified (glutathione-Sepharose beads)
As for B3, the binding result in assay [2] is listed as “binds”.

B4: purified αB-crystallin R120G (from E. coli) (natural protein, human, UniProt P02511 1-175, looked up)
chain: MDIAIHHPWIRRPFFPFHSPSRLFDQFFGEHLLESDLFPTSTSLSPFYLRPPSFLRAPSWFDTGLSEMRLEKDRFSVNLDVKHFSPEELKVKVLGDVIEVHGKHEERQDEHGFISREFHGKYRIPADVDPLTITSSLSSDGVLTVNGPRKQVSGPERTIPITREEKPAVTAAPKK
notes: αB-crystallin, human, mutant R120G found in myofibrillar myopathy patients; probably made as a GST fusion from pGEX-6P-1 with the GST removed; also called R120G αB-crystallin; mutant (R120G); source: E. coli, purified
Take B4: in the assay with GST-BAG3 [3], the binding result is on record as “binds”.

B5: peptide corresponding to aa 200–213 of BAG3 (peptide, UniProt O95817 200-213, looked up)
peptide: QLPRGYISIPVIHE
notes: BAG3, human, amino acids 200–213; source: peptide, 'generated'
On to B5, for which, in assay [4], the binding result is on record as “binds”.

B6: peptide corresponding to aa 87–101 of BAG3 (peptide, UniProt O95817 87-101, looked up)
peptide: PQLRPGYIPIPVLHE
notes: BAG3, human, amino acids 87–101; source: peptide, 'generated'
With B6, in assay [4], the binding result is recorded as “binds”.
